Values quoted from earlier work in paper PMC10769511.

Molecular target: histone H3K4me3 peptide (Homo sapiens) (UniProt P68431)

- Kd: 160 nM
Substance: PHF2 PHD-Jumonji (from UniProt O75151)
